Experimental data published in US20040014209A1, “Compositions and methods for modulating cell differentiation” (priority 2002, published 2004).

What was measured:
DMZ explants = assay: Wnt cDNA overexpression in DMZ explants, Nkx2.5 and TnIc by in situ hybridization; assay type: cell-based, Xenopus; conditions: plasmid cDNA injection into dorsal blastomeres; for Incidence of explants expressing Nkx2.5: stage 23; for Incidence of explants expressing TnIc: stage 30
Excerpt: If the normal function of Wnt antagonism in vivo is to induce cardiogenic mesoderm, then overexpression of Wnt proteins should block cardiogenesis in dorsal mesoderm. Four Wnt genes are known to be expressed during gastrulation: Wnt3A, Wnt5A, Wnt8, and Wnt11. Expression of Wnt8 is normally excluded from the organizer region, whereas Wnt 3A and Wnt11 are expressed dorsally and Wnt5A is found diffusely throughout the ectoderm (Christian and Moon 1993; Ku and Melton 1993; Moon et al. 1993; Du et al. 1995; McGrew et al. 1997). We injected Wnt cDNAs into the two dorsal blastomeres of a four-cell embryo and dissected DMZ explants encompassing the organizer and heart primordia at stage 10 (FIG. 10A). Plasmid injections were performed to avoid perturbation of Nieuwkoop center activity that can occur on expression of certain Wnts before the midblastula transition (Smith and Harland 1991; Sokol et al. 1991). Explants were cultured to either stage 23 or stage 30, at which time they were examined for the expression of Nkx2.5 or TnIc.
(§1) Marginal zone explants were dissected at stage 10. Those explants to be examined by RT-PCR for expression of heart field marker- and heart muscle-specific genes were cultured until sibling embryos were stage 30. In situ hybridization was performed on explants cultured to the equivalent of stage 23 or stage 30. Explants to be scored for formation of beating hearts were maintained until the equivalent of stage 41.
(§2) mRNA was transcribed from pSP35-chd, pSP64-ngn, pCS2-DKK1, pCS2-Crescent, pCS2-GSK3, pCS2-WIF, pCS2-dnXwnt8, pCS2-szl, and pXT7-FrzA using the SP6 and T7 mMessage mMachine kits (Ambion). All cDNAs used encode Xenopus proteins except those for Wnt1 and crescent, which encode chick isoforms. The Xenopus form of crescent was identified while this manuscript was in preparation (Pfeffer et al. 1997; Pera and De Robertis 2000; Shibata et al. 2000) and functions identically to the chick isoform in our assays. Xenopus and chick Crescent share 88% amino acid positional identity within the cysteine-rich domain. Injections were performed in 3% Ficoll in 1×MMR. Embryos were injected equatorially into the two ventral or two dorsal blastomeres at the four-cell stage to target expression to the ventral or dorsal marginal zone. The amount of mRNA injected is given in the text. For plasmid cDNA injections, 75 pg of pCS2-Xwnt3A, pCS2-Xwnt5A, and pCSKA-Xwnt8 and 100 pg of pCS2-cWnt11 supercoiled plasmid constructs were injected.
In situ hybridization was performed according to the protocol of Harland (1991). Digoxygenin-labeled probes were transcribed from the following linearized plasmids: pGEM-XNkx2.5 (XbaI, T7 polymerase) and pBS-TnIc (NotI, T7).

mWnt-3a = mWnt-3a (UniProt P27467); assay: cell-based or functional assay
mWnt-3a, sequence (P27467 19-352 limits assumed): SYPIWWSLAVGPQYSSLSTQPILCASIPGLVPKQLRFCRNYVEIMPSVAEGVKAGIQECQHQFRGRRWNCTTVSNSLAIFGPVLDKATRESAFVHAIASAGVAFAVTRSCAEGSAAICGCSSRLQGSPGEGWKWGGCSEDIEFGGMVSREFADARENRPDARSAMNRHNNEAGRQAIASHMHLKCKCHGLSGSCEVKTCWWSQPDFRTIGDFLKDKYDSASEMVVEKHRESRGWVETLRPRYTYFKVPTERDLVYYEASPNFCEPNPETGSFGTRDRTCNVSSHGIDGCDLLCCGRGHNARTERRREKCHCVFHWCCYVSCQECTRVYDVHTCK

[1] = system: murine embryonic stem (ES) cells; assay: Cardiac differentiation of ES cells; assay type: cell-based
Description: Full length human Dkk1 (SEQ ID NO: 2) was expressed in host cells and incubated with murine embryonic stem (ES) cells. ES cells were lightly trypsinized, re-plated on petri plastic and cultured for 4 days. During this time, the cells cluster and the mesodermal marker brachyury becomes expressed. Cells were then trypsinized lightly and transferred to gelatin-coated plates with or without recombinant Dkk1 and cultured at 37° C. Cardiomyocyte differentiation of ES cells in the absence of Dkk1 occurs at 13-14 days. ES cells incubated with Dkk1 differentiated into cardiomyocytes at 8-9 days (see FIG. 21).
Cells were grown on gelatin-coated plates without LIF for 2d, then allowed to aggregate on petri dish plastic for 2d, aggregates were then dispersed by mild trypsinization and plated onto gelatin-coated plates with rDkk1- or rC1-conditioned medium or control conditioned medium lacking rDkk for duration of experiment. Presence of beating foci was scored on days 8-14. Instances of beating foci presented as “beating”. Precocious beating sometimes occurred at day 8.

APMEE explants = assay: APMEE explant culture, cardiac gene expression by RT-PCR; assay type: cell-based, chick; conditions: noggin administration to APMEE explants
[2] = system: ventral marginal zone (VMZ) explants; assay: VMZ explant assay: mRNA injection, cardiac-specific gene expression and beating; assay type: cell-based, Xenopus laevis
Description: In a modification of this assay (FIG. 6A), we targeted mRNAs encoding Wnt and BMP antagonists to VMZ tissue by microinjection into the equatorial region of both ventral blastomeres of four-cell stage embryos. VMZ explants were isolated at stage 10, cultured, and assayed at stage 30 by RT-PCR for cardiac-specific gene expression.
Embryos were fertilized in vitro, dejellied in 2% cysteine-HCl (pH 7.8), and maintained in 0.1×MMR. Explant dissections were performed in 0.75×MMR using an eyelash knife. Embryos were staged according to Nieuwkoop and Faber (1994).
as §1, §2
RT-PCR was performed as described in Schneider and Mercola (1999). Twenty-five cycles were performed at an annealing temperature of 55° C., unless otherwise noted. Expression of EF1α was used as a positive control for the reverse transcriptase reaction. The following additional primers were used: XNkx2.5+, […] (SEQ ID NO: 7); XNkx2.5−, […] (SEQ ID NO: 8); M. actin+, […] (SEQ ID NO: 9); M. actin−, […] (SEQ ID NO: 10) (22 cycles); TnIc+, […] (SEQ ID NO: 11); TnIc−, […] (SEQ ID NO: 12); MHCα+, […] GTTCCG (SEQ ID NO: 13); MHCα−, […] (SEQ ID NO: 14); Tbx5+, […] (SEQ ID NO: 15); Tbx5−, […] (SEQ ID NO: 16) (27 cycles); XNkx2.10+, […] (SEQ ID NO: 17); and XNkx2.10−, […] (SEQ ID NO: 18) (59° C., 28 cycles).
A secreted version of the C-terminal fragment was made by fusing the secretory region of human Dkk1 to the C-terminal region cysteine rich region, as described above. This protein is referred to as “C1.” Briefly, the HindIII-Asp718 C-terminal fragment of human Dkk1 (SEQ ID NO: 1) was ligated to the sequence encoding the secretory signal of Dkk1 and cloned into a vector permitting in vitro transcription. As a control, full length Dkk1 was used. RNA was prepared in vitro from the vector as described above. The RNA encoded a polypeptide comprising amino acids 158-266 of SEQ ID NO: 2. The RNA was then injected into noncardiogenic frog embryonic mesoderm, as described above and in Schneider and Mercola (2001) Genes & Dev. 15:304.

stage 7 chick embryos = assay: Cell pellet implantation into stage 7 chick embryos in New culture (heart looping, DiI tracing, in situ hybridization); assay type: in vivo

## Wnt3A
DMZ explants
  Incidence of explants expressing Nkx2.5: 45.6%
  Incidence of explants expressing TnIc: 24.2%

## chick Crescent
mWnt-3a
  Wnt-induced expression of siamois in Xenopus animal caps (RT-PCR): 3 fold

B1: Wnt11: expressed from injected pCS2-cWnt11 plasmid (protein, UniProt P49339 25-354, looked up)
Protein Wnt-11: IKWIALSKTPSSLALNQTQHCKQLEGLVVSQVQLCRSNLELMQTIIQAAREVIKTCRKTFSDMRWNCSSIELAPNYLLDLERGTRESAFVYALSAAAISHTIARACTTGDLPGCSCGPIPGETPGPGYRWGGCADNLNYGLIMGSKFSDAPMKMKKSGSQANKLMHLHNSEVGRQVLKASLEMKCKCHGVSGSCSIKTCWKGLQELRDIALDLKNKYLSATKVVHRPMGTRKYLVPKDIDIRPVKETELIYLQSSPDFCMKNEKVGSHGTQDRQCNKTSNGSDSCDLMCCGRGYNPYMDKVVERCHCKYHWCCYVTCKKCERTVERYVCK
DMZ explants
  Incidence of explants expressing Nkx2.5: 94.1%
  Incidence of explants expressing TnIc: 83.1%

B2: Dkk1: Full length human Dkk1 (SEQ ID NO: 2), recombinant, expressed in host cells (protein, UniProt O94907 1-266, looked up)
chain: MMALGAAGATRVFVAMVAAALGGHPLLGVSATLNSVLNSNAIKNLPPPLGGAAGHPGSAVSAAPGILYPGGNKYQTIDNYQPYPCAEDEECGTDEYCASPTRGGDAGVQICLACRKRRKRCMRHAMCCPGNYCKNGICVSSDQNHFRGEIEETITESFGNDHSTLDGYSRRTTLSSKMYHTKGQEGSVCLRSSDCASGLCCARHFWSKICKPVLKEGQVCTKHRRKGSHGLEIFQRCYCGEGLSCRIQKDHHQASNSSRLHTCQRH
modifications: full-length
[1]; PCR, relative to ES cells not incubated with Dkk1
  myosin light chain (MLC2a) mRNA: elevated myosin light chain (MLC2a) mRNA
[1]; by comparison with ES cells not incubated with Dkk1
  Beating, Nkx2.5 and contractile protein expression: early beating, an increased number of beating foci, an increased Nkx2.5 expression and increased contractile protein expression
[1]; recombinant Dkk1, 13-14 days in the absence of Dkk1
  Time to cardiomyocyte differentiation of ES cells: 8 to 9 days

B3: Wnt8: expressed from injected pCSKA-Xwnt8 plasmid (protein)
chain: AWSVNNFLMTGPKAYLTYSASVAVGAQNGIEECKYQFAWERWNCPESTLQLATHNGLRSATRETSFVHAISSAGVMYTLTRNCSMGDFDNCGCDDSRNGRIGGRGWVWGGCSDNAEFGERISKLFVDGLETGQDARALMNLHNNEAGRLAVKETMKRTCKCHGISGSCSIQTCWLQLAEFRDIGNHLKIKHDQALKLEMDKRKMRSGNSADNRGAIADAFSSVAGSELIFLEDSPDYCLKNISLGLQGTEGRECLQSGKNLSQWERRSCKRLCTDCGLRVEEKKTEIISSCNCKFHWCCTVKCEQCKQVVIKHFCARRERDSNMLNTKRKNRGHRR
DMZ explants
  Incidence of explants expressing Nkx2.5: 19.9%
  Incidence of explants expressing TnIc: 41.1%

B4: Wnt5A: expressed from injected pCS2-Xwnt5A plasmid (protein, UniProt P31286 41-380, looked up)
Protein Wnt-5a: VVESSSWWSLGMNPVQMPEVYIIGAQPLCSQLSGLSQGQKKLCQLYQDHMQFIGDGAKTGIKECQYQFRHRRWNCSTVDNTSVFGRVMQIGSRETAFTYAISAAGVVNAVSRACREGELSTCGCSRAARPKDLPRDWLWGGCGDNLDYGYRFAKEFVDAREREKIHQKGSYESSRIMMNLHNNEAGRRAVSTLADVACKCHGVSGSCSLKTCWLQLADFRKVGDHLKEKYDSAGAMKLNTRGKLVQVNNKFNSPTMNDLVYIDPSPDYCVHNESTGSLGTQGRLCNKTSEGMDGCELMCCGRGYDQFKTVQTERCHCKFHWCCYVKCKKCTEVVDQFACK
DMZ explants
  Incidence of explants expressing Nkx2.5: 97.5%
  Incidence of explants expressing TnIc: 85.9%

B5: Noggin: BMP antagonist; noggin-conditioned medium from CHO cells or injected noggin mRNA (protein, UniProt P49011 20-222, looked up)
Noggin: RIDQGGCQHYLHIRPAPSENLPLVDLIEHPDPIYDPKEKDLNETLLRTLMVGHFDPNFMATILPEERLGVEDLGELDLLLRQKPSGAMPAEIKGLEFYEGLQSKKHRLSKKLRRKLQMWLWSQTFCPVLYTWNDLGTRFWPRYVKVGSCYSKRSCSVPEGMVCKAAKSMHLTILRWRCQRRVQQKCAWITIQYPVISECKCSC
APMEE explants
  APMEE explants in which cardiogenesis was blocked (number of explants): 10 out of 14
[2]; VMZ explants
  mRNA dose inducing muscle actin: ≥ 5 pg
[2]; extreme morphogenetic movements of VMZ explants
  mRNA dose at which explants were unable to survive: > 50 pg
[2]; mRNA injected ventrally at four-cell stage, VMZ explants, RT-PCR stage 30
  Heart-specific gene expression (TnIc, MHCα): did not induce specific markers of cardiogenesis

B6: BMP-4: BMP-4 expressed by implanted 293 cell pellets (protein, UniProt P12644 293-408, looked up)
Bone morphogenetic protein 4: SPKHHSQRARKKNKNCRRHSLYVDFSDVGWNDWIVAPPGYQAFYCHGDCPFPLADHLNSTNHAIVQTLVNSVNSSIPKACCVPTELSAISMLYLDEYDKVVLKNYQEMVVEGCGCR
Stage 7 chick embryos; 293 cell pellets in left anterior paraxial mesoderm, stage 7, n=25
  Embryos with reversed heart looping: 20%
Stage 7 chick embryos; cell pellets in presumptive anterior paraxial mesoderm, in situ hybridization
  vMHC expression: failed to affect subsequent vMHC expression
